Data from publication PMC9482650, “Quantitative fragmentomics allow affinity mapping of interactomes” (Nature Communications, 2022).

Legend:
Assay in all cases: holdup assay
Design in all cases: key: below the threshold = too weak to quantify, mostly under pKd 3.1 to 4
[1] = target: GIPC2, Q8TF65
[2] = target: T1, SNTA1, Q13424
T1 sequence (Q13424 82-180, limits assumed, looked up): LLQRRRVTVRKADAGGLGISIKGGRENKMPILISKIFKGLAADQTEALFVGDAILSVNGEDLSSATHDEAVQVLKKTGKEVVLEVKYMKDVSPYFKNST

[3] = target: Inadl_8, Q8NI35
[4] = target: NHERF4_4, Q86UT5
[5] = target: T2, LIN7B, Q9HAP6
T2 sequence (Q9HAP6 88-185, limits assumed, looked up): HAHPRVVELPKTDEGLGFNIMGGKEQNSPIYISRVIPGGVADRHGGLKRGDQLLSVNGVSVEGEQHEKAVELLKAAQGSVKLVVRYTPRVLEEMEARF

[6] = target: T3, DLG3_2, Q92796
T3 sequence (Q92796 221-321, limits assumed, looked up): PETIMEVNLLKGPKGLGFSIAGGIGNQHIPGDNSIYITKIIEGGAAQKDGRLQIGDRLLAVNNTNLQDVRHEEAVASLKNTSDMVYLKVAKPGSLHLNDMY

[7] = target: T4, HTRA3, P83110
T4 sequence (P83110 354-453, limits assumed, looked up): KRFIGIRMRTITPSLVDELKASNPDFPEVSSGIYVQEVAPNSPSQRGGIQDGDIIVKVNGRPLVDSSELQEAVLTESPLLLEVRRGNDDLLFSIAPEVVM

[8] = target: FRMPD2_1, Q68DX3
[9] = target: FRMPD2_3, Q68DX3
[10] = target: GORASP1, Q9BQQ3
[11] = target: MAGI1_2, Q96QZ7
[12] = target: GOPC, Q9HD26
[13] = target: T5, FRMPD1, Q5SYB0
T5 sequence (Q5SYB0 52-145, limits assumed, looked up): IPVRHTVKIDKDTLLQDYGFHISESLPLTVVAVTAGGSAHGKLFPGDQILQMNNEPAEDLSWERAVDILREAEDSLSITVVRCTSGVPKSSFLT

[14] = target: Inadl_1, Q8NI35
[15] = target: T6, NHERF3_3, Q5T2W1
T6 sequence (Q5T2W1 238-333, limits assumed, looked up): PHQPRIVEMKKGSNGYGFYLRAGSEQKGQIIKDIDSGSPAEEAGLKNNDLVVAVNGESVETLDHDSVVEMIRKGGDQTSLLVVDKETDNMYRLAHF

[16] = target: T7, APBA1_1, Q02410
T7 sequence (Q02410 651-752, limits assumed, looked up): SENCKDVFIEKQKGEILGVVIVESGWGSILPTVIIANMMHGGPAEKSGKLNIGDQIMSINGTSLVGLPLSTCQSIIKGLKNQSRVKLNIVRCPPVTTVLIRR

[17] = target: Inadl_6, Q8NI35
[18] = target: Inadl_10, Q8NI35
[19] = target: MAGI2_3, Q86UL8
[20] = target: T8, ARHGEF11, O15085
T8 sequence (O15085 42-136, limits assumed, looked up): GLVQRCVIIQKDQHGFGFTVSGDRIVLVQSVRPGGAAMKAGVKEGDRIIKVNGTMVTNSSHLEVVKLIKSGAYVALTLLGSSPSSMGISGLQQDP

[21] = target: MAST2, Q6P0Q8
[22] = target: T9, RHPN1, Q8TCX5
T9 sequence (Q8TCX5 508-602, limits assumed, looked up): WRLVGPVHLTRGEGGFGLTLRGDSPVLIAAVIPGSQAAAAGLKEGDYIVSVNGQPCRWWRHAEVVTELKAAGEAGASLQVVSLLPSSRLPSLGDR

[23] = target: Inadl_4, Q8NI35
[24] = target: DLG4_2, P78352
[25] = target: MAGI3_2, Q5TCQ9
[26] = target: LNX1_2, Q8TBB1
[27] = target: PARD3_3, Q8TEW0
[28] = target: LNX1_3, Q8TBB1
[29] = plain residues with an end cap or a label only (N-terminal biotin on a linker: ado-ado)
[30] = modified: phospho on T at position -2 from the C-terminal residue

Sequence of DLG4_2, P78352 (P78352 155-259): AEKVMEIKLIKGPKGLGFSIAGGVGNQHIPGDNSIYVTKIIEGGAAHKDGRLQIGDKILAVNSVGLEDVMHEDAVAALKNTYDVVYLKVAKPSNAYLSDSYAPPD
Sequence of GIPC2, Q8TF65 (Q8TF65 112-203): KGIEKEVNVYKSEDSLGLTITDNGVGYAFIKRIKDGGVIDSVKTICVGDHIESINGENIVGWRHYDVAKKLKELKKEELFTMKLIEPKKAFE
Sequence of MAGI1_2, Q96QZ7 (Q96QZ7 456-580): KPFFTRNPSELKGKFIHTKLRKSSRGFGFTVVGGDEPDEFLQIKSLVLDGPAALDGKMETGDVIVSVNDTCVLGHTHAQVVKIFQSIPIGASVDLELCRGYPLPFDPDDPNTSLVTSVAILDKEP
Sequence of MAGI3_2, Q5TCQ9 (Q5TCQ9 398-503): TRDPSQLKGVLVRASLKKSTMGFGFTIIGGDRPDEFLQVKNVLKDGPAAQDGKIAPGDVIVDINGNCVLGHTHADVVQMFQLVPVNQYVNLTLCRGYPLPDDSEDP
Sequence of MAST2, Q6P0Q8 (Q6P0Q8 1099-1202): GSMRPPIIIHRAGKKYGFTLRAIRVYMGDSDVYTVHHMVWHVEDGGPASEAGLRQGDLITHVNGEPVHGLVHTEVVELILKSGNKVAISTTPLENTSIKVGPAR
Sequence of Inadl_8, Q8NI35 (Q8NI35 1425-1530): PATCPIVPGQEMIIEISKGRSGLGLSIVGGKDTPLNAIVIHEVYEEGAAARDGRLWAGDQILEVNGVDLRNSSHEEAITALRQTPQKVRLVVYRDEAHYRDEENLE
Sequence of LNX1_3, Q8TBB1 (Q8TBB1 500-596): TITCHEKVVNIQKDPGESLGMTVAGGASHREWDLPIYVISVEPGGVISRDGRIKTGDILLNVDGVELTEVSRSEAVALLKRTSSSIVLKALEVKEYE
Sequence of Inadl_4, Q8NI35 (Q8NI35 547-651): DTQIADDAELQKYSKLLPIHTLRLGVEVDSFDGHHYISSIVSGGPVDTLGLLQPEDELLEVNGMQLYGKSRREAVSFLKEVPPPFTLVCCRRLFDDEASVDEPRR
Sequence of Inadl_6, Q8NI35 (Q8NI35 1058-1167): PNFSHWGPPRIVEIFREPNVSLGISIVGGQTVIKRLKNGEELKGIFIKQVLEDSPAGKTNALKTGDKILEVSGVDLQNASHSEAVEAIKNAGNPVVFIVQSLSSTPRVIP
Sequence of NHERF4_4, Q86UT5 (Q86UT5 464-550): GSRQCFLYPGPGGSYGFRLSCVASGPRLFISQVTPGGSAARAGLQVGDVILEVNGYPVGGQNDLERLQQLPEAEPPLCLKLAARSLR
Sequence of Inadl_1, Q8NI35 (Q8NI35 113-229): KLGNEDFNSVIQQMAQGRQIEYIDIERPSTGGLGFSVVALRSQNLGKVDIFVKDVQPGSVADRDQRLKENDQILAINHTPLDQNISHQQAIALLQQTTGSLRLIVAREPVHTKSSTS
Sequence of Inadl_10, Q8NI35 (Q8NI35 1673-1763): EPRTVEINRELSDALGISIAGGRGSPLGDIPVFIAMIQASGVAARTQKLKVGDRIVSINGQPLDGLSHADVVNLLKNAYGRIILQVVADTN
Sequence of LNX1_2, Q8TBB1 (Q8TBB1 371-470): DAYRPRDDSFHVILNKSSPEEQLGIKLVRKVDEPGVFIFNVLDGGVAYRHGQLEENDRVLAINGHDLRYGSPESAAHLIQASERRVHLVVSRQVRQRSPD
Sequence of PARD3_3, Q8TEW0 (Q8TEW0 582-685): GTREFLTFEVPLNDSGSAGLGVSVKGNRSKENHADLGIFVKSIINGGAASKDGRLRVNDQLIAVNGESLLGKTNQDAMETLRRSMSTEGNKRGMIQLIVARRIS
Sequence of FRMPD2_3, Q68DX3 (Q68DX3 1073-1166): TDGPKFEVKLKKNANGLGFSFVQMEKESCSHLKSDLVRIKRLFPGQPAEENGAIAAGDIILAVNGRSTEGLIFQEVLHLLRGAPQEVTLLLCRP
Sequence of MAGI2_3, Q86UL8 (Q86UL8 600-682): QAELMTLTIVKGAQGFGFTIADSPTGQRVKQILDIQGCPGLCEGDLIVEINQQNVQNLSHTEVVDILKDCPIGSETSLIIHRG
Sequence of GORASP1, Q9BQQ3 (Q9BQQ3 1-208): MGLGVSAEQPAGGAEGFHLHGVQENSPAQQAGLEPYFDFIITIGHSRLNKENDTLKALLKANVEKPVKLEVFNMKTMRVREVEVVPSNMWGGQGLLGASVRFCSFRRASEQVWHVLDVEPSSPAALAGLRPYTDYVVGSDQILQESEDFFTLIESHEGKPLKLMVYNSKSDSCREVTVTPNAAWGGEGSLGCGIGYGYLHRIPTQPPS
Sequence of FRMPD2_1, Q68DX3 (Q68DX3 770-861): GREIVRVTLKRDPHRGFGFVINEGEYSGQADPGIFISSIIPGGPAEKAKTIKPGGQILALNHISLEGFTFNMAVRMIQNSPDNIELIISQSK

In the case of YNNCLEILRV [DCAF7, P61962], the pKd [1, 29] is reported as “below the threshold”, the pKd [2, 29] is reported as “below the threshold” and the pKd [3, 29] is reported as “below the threshold”. The pKd [4, 29] was “below the threshold”, the pKd [5, 29] was “below the threshold” and the pKd [6, 29] was “below the threshold”. For the same binder, the pKd [7, 29] was “below the threshold”, the pKd [8, 29] was “below the threshold” and the pKd [9, 29] was “below the threshold”. The pKd [10, 29] was 4.74, the pKd [11, 29] was “below the threshold” and the pKd [12, 29] was “below the threshold”. The pKd [13, 29] was “below the threshold”, the pKd [14, 29] was “below the threshold” and the pKd [15, 29] was “below the threshold”. For the same binder, the pKd [16, 29] was “below the threshold”, the pKd [17, 29] was “below the threshold” and the pKd [18, 29] was “below the threshold”. The pKd [19, 29] was “below the threshold”, the pKd [20, 29] was 3.78 and the pKd [21, 29] was 4.53. For the same binder, the pKd [22, 29] was “below the threshold”, the pKd [23, 29] was “below the threshold” and the pKd [24, 29] was “below the threshold”. The pKd [25, 29] was “below the threshold”, the pKd [26, 29] was 4.1 and the pKd [27, 29] was 3.97. For the same binder, the pKd [28, 29] was 3.94.

For LGRSTPQSEV [DGKH, Q86XP1], the pKd [1, 29] was “below the threshold”, the pKd [2, 29] was 3.8 and the pKd [3, 29] was 3.98. The pKd [4, 29] was “below the threshold”, the pKd [5, 29] was “below the threshold” and the pKd [6, 29] was “below the threshold”. The pKd [7, 29] was “below the threshold”, the pKd [8, 29] was “below the threshold” and the pKd [9, 29] was “below the threshold”. The pKd [10, 29] was “below the threshold”, the pKd [11, 29] was “below the threshold” and the pKd [12, 29] was 3.87. For the same binder, the pKd [13, 29] was “below the threshold”, the pKd [14, 29] was “below the threshold” and the pKd [15, 29] was “below the threshold”. The pKd [16, 29] was “below the threshold”, the pKd [17, 29] was “below the threshold” and the pKd [18, 29] was “below the threshold”. For the same binder, the pKd [19, 29] was “below the threshold”, the pKd [20, 29] was 4.15 and the pKd [21, 29] was 4.85. The pKd [22, 29] was 4.49, the pKd [23, 29] was “below the threshold” and the pKd [24, 29] was 3.92. The pKd [25, 29] was 4.04, the pKd [26, 29] was “below the threshold” and the pKd [27, 29] was “below the threshold”. The pKd [28, 29] was “below the threshold”.

In the case of SKPTRRETEV [HPV35-E6_-2P, P27228], the pKd [1, 30] is reported as “below the threshold”, the pKd [2, 30] is reported as “below the threshold” and the pKd [3, 30] is reported as “below the threshold”. For the same binder, the pKd [4, 30] was 3.86, the pKd [5, 30] was “below the threshold” and the pKd [6, 30] was “below the threshold”. For the same binder, the pKd [7, 30] was “below the threshold”, the pKd [8, 30] was “below the threshold” and the pKd [9, 30] was “below the threshold”. The pKd [10, 30] was “below the threshold”, the pKd [11, 30] was “below the threshold” and the pKd [12, 30] was “below the threshold”. For the same binder, the pKd [13, 30] was “below the threshold”, the pKd [14, 30] was “below the threshold” and the pKd [15, 30] was “below the threshold”. The pKd [16, 30] was “below the threshold”, the pKd [17, 30] was “below the threshold” and the pKd [18, 30] was “below the threshold”. For the same binder, the pKd [19, 30] was “below the threshold”, the pKd [20, 30] was “below the threshold” and the pKd [21, 30] was “below the threshold”. The pKd [22, 30] was “below the threshold”, the pKd [23, 30] was “below the threshold” and the pKd [24, 30] was 3.56. For the same binder, the pKd [25, 30] was “below the threshold”, the pKd [26, 30] was “below the threshold” and the pKd [27, 30] was “below the threshold”. The pKd [28, 30] was “below the threshold”.

With RRLPGKETMA [GRIK2, Q13002] the pKd [1, 29] was “below the threshold”, the pKd [2, 29] was “below the threshold” and the pKd [3, 29] was “below the threshold”. For the same binder, the pKd [4, 29] was “below the threshold”, the pKd [5, 29] was 3.64 and the pKd [6, 29] was 4.18. For the same binder, the pKd [7, 29] was “below the threshold”, the pKd [8, 29] was “below the threshold” and the pKd [9, 29] was “below the threshold”. For the same binder, the pKd [10, 29] was “below the threshold”, the pKd [11, 29] was “below the threshold” and the pKd [12, 29] was “below the threshold”. The pKd [13, 29] was “below the threshold”, the pKd [14, 29] was “below the threshold” and the pKd [15, 29] was “below the threshold”. The pKd [16, 29] was “below the threshold”, the pKd [17, 29] was “below the threshold” and the pKd [18, 29] was “below the threshold”. For the same binder, the pKd [19, 29] was “below the threshold”, the pKd [20, 29] was “below the threshold” and the pKd [21, 29] was “below the threshold”. For the same binder, the pKd [22, 29] was “below the threshold”, the pKd [23, 29] was “below the threshold” and the pKd [24, 29] was “below the threshold”. For the same binder, the pKd [25, 29] was “below the threshold”, the pKd [26, 29] was “below the threshold” and the pKd [27, 29] was “below the threshold”. The pKd [28, 29] was “below the threshold”.
